Assay results published in publication PMC7057681 (ACS Omega, 2020).
Changes are numbered by the printed parent chain. In names and notes the source's numbering stands.

B1: S100A3 R51Q mutant (natural protein, human)
chain: MARPLEQAVAAIVCTFQEYAGRCGDKYKLCQAELKELLQKELATWTPTEFQECDYNKFMSVLDTNKDCEVDFVEYVRSLACLCLYCHEYFKDCPSEPPCSQ
B2: citrullinated S100A3 (R51Z), WT S100A3 citrullinated in vitro by PAD3 (natural protein, human)
chain: B1 chain with Q51R
modifications: citrulline at R51 (by PAD3 in vitro)
B3: S100A3 R51E mutant (natural protein, human)
chain: B1 chain with Q51E

Key:
[1] = target: the molecule itself; experiment: SEC-SAXS
[2] = target: the molecule itself; experiment: SEC
[3] = target: the molecule itself; experiment: SEC; remark: listed apart in the source

| Protein | stoichiometry N [1] | stoichiometry N [2] | stoichiometry N [3] |
| --- | --- | --- | --- |
| B1 | 2 | 4 | – |
| B2 | – | 4 | – |
| B3 | – | – | 4 |
